# Paper PMC5703867, “Development of Novel Promiscuous Anti-Chemokine Peptibodies for Treating Autoimmunity and Inflammation” (Frontiers in Immunology, 2017)
# Where no end group is shown, it is not given here. The star is where a group is joined. Biotin = O=C1N[C@H]2[C@H](CS[C@H]2CCCCC(=O)*)N1
# Target: T1, CCL2 (human, UniProt P13500 24-99)
# T1 construct: CCL2, human, recombinant; source: bought: PeproTech
# Experiment: ELISA; chemokine coated on maxisorp plates (0.1-1.0 µg/ml in 0.1 M NaHCO3, pH 8.6), BSA block, biotinylated synthetic peptides in TBST-BSA for 45 min at RT, detected with HRP-streptavidin or AP-anti-biotin; fold binding at 10 and 100 ng/ml peptide
# Details: both partners purified
# T1 sequence (P13500 24-99): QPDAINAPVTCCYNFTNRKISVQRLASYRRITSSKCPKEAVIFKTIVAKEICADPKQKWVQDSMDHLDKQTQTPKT
row,binding result,Binder
1,binds,"SIPSHSIHSAKAGGGSK(Biotin)G (also: biotin at C-terminus, format X12GGGSK-biotin-G, BKT130 peptide; C-terminal tail of the linear peptide format X12GGGSK-biotin-G; also called BTK130; source: synthetic peptide (Weizmann Institute of Science)) [BKT130 biotinylated synthetic peptide]"
2,binds,"LDYPIPQTVLHHGGGSK(Biotin)G (also: biotin at C-terminus, format X12GGGSK-biotin-G, BKT120 peptide; C-terminal tail of the linear peptide format X12GGGSK-biotin-G; also called BTK120; source: synthetic peptide (Weizmann Institute of Science)) [BKT120 biotinylated synthetic peptide]"
